Tests used:
purified protein [1] = substrate: C/C(=C\C(=O)SCCNC(=O)CCNC(=O)[C@H](O)C(C)(C)COP(=O)(O)OP(=O)(O)OC[C@H]1O[C@@H](n2cnc3c(N)ncnc32)[C@H](O)[C@@H]1OP(=O)(O)O)C(=O)O; test: purified protein; type: biochemical, Chloroflexus aurantiacus; details: 200 mM HEPES/KOH pH 8.0, 55 °C, 22 nM Mct, intra-molecular CoA transfer C4 to C1
purified protein [2] = substrate: C/C(=C\C(=O)O)C(=O)SCCNC(=O)CCNC(=O)[C@H](O)C(C)(C)COP(=O)(O)OP(=O)(O)OC[C@H]1O[C@@H](n2cnc3c(N)ncnc32)[C@H](O)[C@@H]1OP(=O)(O)O; test: purified protein; type: biochemical, Chloroflexus aurantiacus; details: 200 mM HEPES/KOH pH 8.0, 55 °C, 22 nM Mct, intra-molecular CoA transfer C1 to C4

B1: Mct (mesaconyl-CoA transferase; mesaconyl-C1:C4-CoA CoA transferase) (Chloroflexus aurantiacus J-10-fl) (protein)
chain: MKGILHGLRVVEGSAFVAAPLGGMTLAQLGADVIRFDPIGGGLDYKRWPVTLDGKHSLFWAGLNKGKRSIAIDIRHPRGQELLTQLICAPGEHAGLFITNFPARGWLSYDELKRHRADLIMVNLVGRRDGGSEVDYTVNPQLGLPFMTGPVTTPDVVNHVLPAWDIVTGQMIALGLLAAERHRRLTGEGQLVKIALKDVGLAMIGHLGMIAEVMINDTDRPRQGNYLYGAFGRDFETLDGKRVMVVGLTDLQWKALGKATGLTDAFNALGARLGLNMDEEGDRFRARHEIAALLEPWFHARTLAEVRRIFEQHRVTWAPYRTVREAIAQDPDCSTDNPMFAMVEQPGIGSYLMPGSPLDFTAVPRLPVQPAPRLGEHTDEILLEVLGLSEAEVGRLHDEGIVAGPDRAA
notes: intertwined homodimer
Protein B1 has a Km (purified protein [1]) of 200 µM, a kcat (purified protein [1]) of 320 s⁻¹ and a Km (purified protein [2]) of 160 µM. It also gave a kcat (purified protein [2]) of 370 s⁻¹.
